{"source": "the DeepSol protein solubility set"}
{"test": "soluble on expression in E. coli; label from the status in PepcDB or PDB records"}
{"sequence": "MRVLVSGGGTGGHIYPALALIREIKKLNPEARFLYIGTENGLESTIVPKAGIPFQSIVISGFKRKISLDNVKTVMRFLKGVQDSKRYIRRFNPDIVIGTGGYVCGPVVYAAAKLGIPTIVHEQNSVPGVTNKFLSRYVDKVAVCFEAAAEHFPQSKVVMTGNPRASEVMDQNGMKGKRSVGLSLPKKSVLIFGGSRGARPINDAFVEAIEQFGNKSYEILYVTGEVHYDKVMEAVKQKGNPNNVIIKPFIHNMPEVLTGVDLVVSRAGATTLAELTALGKPSVLIPSPYVTNNHQEKNARSVVDKGAAKMLLEKDLTAETLIRDIDEILLDAQTLQNMKLAAGQLGIPDAANKLYEVMNKLVKK", "soluble on expression in E. coli": "not soluble"}
{"sequence": "MLDFKPIELKDRELFHEYLKDYDFLTYEYSFLTLYIWRKMYNTEFAIVDDTIVIKKRTANNGTYFMQPIGADKSKIADITLKLNTLRKNNPDFKYLYGDVETPFLEQLHENFGNLVTSHEDKNNFDYIFNSKDLIKLSGKKYHRKKNQYNQFIKKYDYRIEEIQSPEVIKNCIDLSLKWYDYKSLQSEQLKNEQKAIFDIFSNIKIFNNIKGIAVYVNNEIAGFAIGEKLNSKMATVHFEKGNYNFSGIYPFLNKSLVEIFFRDVEFINLQEDLGLEGLRRAKSAYQPIKLEKKYLVNI", "soluble on expression in E. coli": "not soluble"}
{"sequence": "MAHHHHHHMSVTIKLSNGSQKTVEVPDLNITVAKFKEIASAVTNIPADEQRVVLRGRVLKDGDVLSAMGMEHGQAVHIVRGQKSTKSDVASPSAQESASTQETQTNTNPQARPETVNPYAALAANLPASGGFSNNIPGNPNPGLQMPPELLSNMLQNPAFMQYFQEMMRNPQFLQQRMQQPQQQSQSQSPFGMNEGEMQRLLNNPMFMQLVLQMMSDPSIMQQLTQSLGGGFPASNTPLFGQQNAPAPNFAQNTGFFQPQGDPRVLYQSQLQQLREMGFTNEQANLAALEQAHGNIDFAIERLLNA", "soluble on expression in E. coli": "soluble"}
{"sequence": "MAHHHHHHMTAAADFALPDLVLFLRLYDSANVEDGQLLVQVMNEIHRQLFALAETAADAAVARGGSSTPSMAGTTIGEHDLDAANRGVKGISPAPSASPLPLPAMLYTMSSLGIVEEAVLDVVTSSAVQDGARGRRGLLYSQLRLYSVADLLQLLVALHRFGHQQQPSTKAVTMALRASLYRTSTTASRFHRRARSLKRALAARPQTPSSGEGRADAAAADADTGGVAAVIAADEELSSLAFGLGCPLFLLLEALTATATTVHRRTDVVAFLSDLIAVTAVAELTTAVHESRGRRSPAGCEDLAREAQEFVFAVSHQLLRAAKLTECMELPQILLSDVFAWSTTLSGRGVFVDGGEDNAVPSDRVAYYDHVTADLIKANSAE", "soluble on expression in E. coli": "not soluble"}
{"sequence": "MEDNNELIKGRGAQMQAKSRFHAQEIVQEHMEGIDEITDINTPTQYLYENAKQIVNKVDSPDIGLAYSMNPYQGCEHGCIYCYARNSHEYWGYNAGIDFEKKIIVKRNAASVLAKTFEKPNWEVLPIMFSGNTDCYQPIERKLQITRNMLQVIATYKHPVGMITKNHLITRDIDILKELAAQQLVHVSISITSARDEIRQKLEPRASAISQRLKTVEALAKENIPVNVMIAPIIPGINHHEIPQIMKQIADAGASSAAYTIVRLNGSIGVVFEDWIRKAYPDRADKVLNQIKECHGGTLNDSRFSTRMRGQGNIAASIHDLFYVSRKKYLSGREYPPLRTDLFVRSNKGQLGLF", "soluble on expression in E. coli": "not soluble"}
{"sequence": "MGSDKIHHHHHHMAEKKEFVVGIDLGTTNSVIAWMKPDGTVEVIPNAEGSRVTPSVVAFTKSGEILVGEPAKRQMILNPERTIKSIKRKMGTDYKVRIDDKEYTPQEISAFILKKLKNDAEAYLGGEIKKAVITCPAYFNDAQRQATKEAGIIAGLEVLRIINEPTAAALAYGLDKAGKEEKVLVYDLGGGTFDVSILEIGEGVIEVIATAGNNHLGGDDFDQRLIDWMAEEFKKQHGIDLREDRQALQRLRDAAEKAKIELSTKMETDVSLPFIAVSPSGQPLHLEMRITRSLFESLTRDLVEMTRGPIEQALNDAKLSPQDIDEIILVGGMTRVPMVQRFIKEFFGKEPNKSVNPDEAVAIGAAIQAAILAGTEGAKGRDIVLVDVTPLTLGIEVKGGLFEPIIPRNTKIPVRKSKIFTTVEDGQTEVEIRVYQGERPIARENIFLGSFKLVGIPPAPRGVPQIEVTFDIDSDGIVHVSAKDLGSGKEQSMVVTGRHKLSEDEIKRMIEDAKRYEEQDKRLKEEIELKNRADDLAYSVEKTLKEHGDKIPADLKSRLEDMIRELRDAINRNDIPKVKMLFDDLQKESMKIGEYLYKSATGGETSNQ", "soluble on expression in E. coli": "not soluble"}
{"sequence": "MGSDKIHHHHHHMDVIQLSNDGRCRWLEKQVMNKIFPQAIRSAKIKDIPTQYMIIDWISNDNGKVGVDLKWFKKLGVPYVKTYNDLPEGNDFVVVNTGYDSIVHEEKVLREKGVEILDKPCPFVRKLRKEFEKIDDSYQYVLLCESNHIIIKNFATIFPRDMILIQMGNYKEKLLEQSNGKPMMFISYVTFLKKHSIQVFDFINKTFPGKDHKMVDTQCMWAAGRLSPIDEIRNMSEDILKEVRYALLIGSPGSTNKSLMSLHETIIDKGLEVINIGSLRDFLDFRRKHKKEKVLLVKSPIPNQAEKPILAFLRHGYLYAYYTLWRER", "soluble on expression in E. coli": "not soluble"}
{"sequence": "MDTRDGNEKTRDAILDAAVMHVPFDGWSETTLRAAIRDSGVAPGLARALFPRGGVDLALAYHRRGDERMLEKAAAADLGALRYSERVAALIRFRLEAVEDKELVRRGSTLFSLPQHAGDGARALWGTADRIWTALGDSSRDLNWYTKRATLSAVYAATVLYWLGDDTPGHYATWEFLDRRIADVLRFEKMKTEAQRNPLLRAVTAGPRMVMRRVHAPAPPADVPGRSSRFLEHHHHHH", "soluble on expression in E. coli": "soluble"}
{"sequence": "MEFINNITIRARVAFYLAVAQKAFEGLSENDQGYLQADEALKQCWNWLKGKNISGDELCEYLENERDTGLMVYSSFVQGDPVKEPIWITIITALMYTIWQAYQIENEKYLPESIEQVDEGTIDILIEYAKKCANYDEHWIKLLENYLLEKYRTTNMNEVGIAILKDEIMGIR", "soluble on expression in E. coli": "soluble"}
{"sequence": "MGSDKIHHHHHHMEKKIVYFNKPGRENTEETLRLAVERAKELGIKHLVVASSYGDTAMKALEMAEGLEVVVVTYHTGFVREGENTMPPEVEEELRKRGAKIVRQSHILSGLERSISRKLGGVSRTEAIAEALRSLFGHGLKVCVEITIMAADSGAIPIEEVVAVGGRSRGADTAVVIRPAHMNNFFDAEIKEIICMPRNKR", "soluble on expression in E. coli": "soluble"}
{"sequence": "VSIDVPERADLEQVRGRWRNAVAGVLSKSNRTDSAQLGDHPERLLDTQTADGFAIRALYTAFDELPEPPLPGQWPFVRGGDPLRDVHSGWKVAEAFPANGATADTNAAVLAALGEGVSALLIRVGESGVAPDRLTALLSGVYLNLAPVILDAGADYRPACDVMLALVAQLDPGQRDTLSIDLGADPLTASLRDRPAPPIEEVVAVASRAAGERGLRAITVDGPAFHNLGATAATELAATVAAAVAYLRVLTESGLVVSDALRQISFRLAADDDQFMTLAKMRALRQLWARVAEVVGDPGGGAAVVHAETSLPMMTQRDPWVNMLRCTLAAFGAGVGGADTVLVHPFDVAIPGGFPGTAAGFARRIARNTQLLLLEESHVGRVLDPAGGSWFVEELTDRLARRAWQRFQAIEARGGFVEAHDFLAGQIAECAARRADDIAHRRLAITGVNEYPNLGEPALPPGDPTSPVRRYAAGFEALRDRSDHHLARTGARPRVLLLPLGPLAEHNIRTTFATNLLASGGIEAIDPGTVDAGTVGNAVADAGSPSVAVICGTDARYRDEVADIVQAARAAGVSRVYLAGPEKALGDAAHRPDEFLTAKINVVQALSNLLTRLGA", "soluble on expression in E. coli": "not soluble"}
{"sequence": "MGSDKIHHHHHHLPNLQEIFKKDNFIAWDDKVYPSILNFGAPLPKPLPRIAPNNAPLARLFIEFLYYYSMFNFKENYIGARPVMVMDRRTSQNNMVRSSTNKEVCIQDPFDEHNPGRTVRTLNRIKDVMRSTYQKFLPVEGSEFTFPTLDDIINMSPEVPKPSRAEVRNFRAEATEVNRVGLGVYCRNSFV", "soluble on expression in E. coli": "not soluble"}
{"sequence": "MSLKEFLIKKIEFTLFEVCIPDIGADPSGFGVWYEPGPGTPQKRFAVRIFTDEGPVGVYVPPRSRATVIMPAAIALAHFLIRKPALERERHYQTMRRITKHVGEAGIGALDIALWDLGGKISGQPISQMLGGHRRKLPSYASTIPGDEHPKGLSSSEAYADFAQQCLEIGYKGYKMHGWKEGNPQRESEMIRAVARQVGGSMDIMYDAACHLKTLTDAIRVGRVCDEHELLWYEDPYADGGLTIRGHRALKEKVRTPVMIGEHVRNPEIHTELLVSGATDFGRVDPDYDGGITGSYKAAMAAESLGYDVEVHSCGPAMRQLMAALSISNYYEINLVHPIGPNPWQLPVYLNGYSDELDCIDREGMVDVSQSPGLGVDYDWEWIEKNSLERIIVDKAKEGHHHHHH", "soluble on expression in E. coli": "soluble"}
{"sequence": "METALVSIIMPMYNAGKFLSKSIESVLEQTYQNWELLLIDDGSKDDSIDIALAFMEKDSRIFLLKNEQNMGIAKTRNKGIEASKGQYIAFLDSDDLWLPNKLEVQVKWMEEKKLLFTCSSYFVCNENGNITHERNFSEGPQTYQDLLKTNTIGCLTVVVESNLLKRHLMPDLKHEDYATWLNILKEINTVYFINEKLAIYRKLTTSTSSNKWNTISWVWKILRQNEQFSVIKSSFYLMRFLFYTTFKYAKNELEHHHHHH", "soluble on expression in E. coli": "soluble"}
{"sequence": "MGSDKIHHHHHHMPKKSFAQDCLYTAIMRLMREKDVDDITVKELVLKAGVARSTFYRYYTQPMDVLRDYLRPFNHGNAHLDDKDDKKVYLRRFYQYYTGHSELIYTLVQANKTEFLRETISCHILEVFSPMMTNKGVSPFLQKASVGLCVETLILWIVNDRKEKIEEMTDTVHNMVAVVERVS", "soluble on expression in E. coli": "not soluble"}
{"sequence": "MQYIKIHALDNVAVALADLAEGTEVSVDNQTVTLRQDVARGHKFALTDIAKGANVIKYGLPIGYALADIAAGEHVHAHNTRTNLSDLDQYRYQPDFQDLPAQAADREVQIYRRANGDVGVRNELWILPTVGCVNGIARQIQNRFLKETNNAEGTDGVFLFSHTYGCSQLGDDHINTRTMLQNMVRHPNAGAVLVIGLGCENNQVAAFRETLGDIDPERVHFMICQQQDDEIEAGIAHLHQLYSVMRNDKREPGKLSELKFGLECGGSDGLSGITANPMLGRFSDYVIANGGTTVLTEVPEMFGAEQLLMDHCRDEATFEKLVTMVNDFKQYFIAHDQPIYENPSPGNKAGGITTLEDKSLGCTQKAGSSVVVDVLRYGERLKTPGLNLLSAPGNDAVATSALAGAGCHMVLFSTGRGTPYGGFVPTVKIATNSELAAKKKHWIDFDAGQLIHGKAMPQLLEEFIDTIVEFANGKQTCNERNDFRELAIFKSGVTL", "soluble on expression in E. coli": "not soluble"}
{"sequence": "IHHLPPVKAPLQTKKKIMKHCFLCGKKTGLATSFECRCGNNFCASHRYAEAHGCNYDYKSAGRRYLEEANPV", "soluble on expression in E. coli": "soluble"}
{"sequence": "SLDITFIDETEKVPTEEIKEIENLLQFAAGFLEIAEDTEMSVTFTDNAGIQMINRDYRGKDMPTDVISFALEDEGEDELPIIFDDEELAELPRNLGDLIISTERAAEQAVEYGHTLEREMGFLAVHGFLHLNGYDHMEPEDEKEMFGLQKEILDAYGLKR", "soluble on expression in E. coli": "soluble"}
{"sequence": "GPHSLRYFVTAVSRPGLGEPRFISVGYVDNTEFVRFDSDAENPRYEPRARWMEQEGPEYWERETQKAKGNEQSFRVDLRTLLGYYNQSKGGSHTIQVISGCEVGSDGRLLRGYQQYAYDGCDYIALNEDLKTWTAADMAALITKHKWEQAGEAERLRAYLEGTCVEWLRRYLKNGNATLLRTDSPKAHVTHHSRPEDKVTLRCWALGFYPADITLTWQLNGEELIQDMELVETRPAGDGTFQKWASVVVPLGKEQYYTCHVYHQGLPEPLTLRWEPPPST", "soluble on expression in E. coli": "soluble"}
